Results on 1 molecule are retold here after patent US20210063414A1, “METHODS FOR PREVENTING AND/OR TREATING BONE LOSS CONDITIONS BY MODULATING IRISIN” (Dana-Farber Cancer Institute, Inc., priority 2018, published 2021).

The experiment deals with sclerostin mRNA in MLO-Y4 cells. The experiment is described as follows: Sclerostin mRNA in MLO-Y4 cells, qRT-PCR. It is filed as cell-based, mouse. The following applies: MLO-Y4, irisin 16 hours. The procedure:
Cells were stained with Hoechst 33342 and Eth-D1, and analyzed to determine the percentage of cell death. *: p<0.05, ***: p<0.001 vs 0.3 mM H2O2 treated condition. […] MLO-Y4 cells were seeded and incubated until 60% cell density. The cells were incubated with Freestyle293 medium for 4 hours and were treated with indicated concentrations of irisin for 16 hours. Sclerostin mRNA level was analyzed by qRT-PCR. Cyclophilin was used as a control house-keeping gene.
MLO-Y4 cells were incubated in serum free medium for 3 hours followed by treatment of indicated concentrations of irisin for indicated time (FIG. 6A), or followed by treatment of 0 or 10 nM irisin in the presence of indicated integrin inhibitors or their control peptide for 16 hours (FIG. 6B). Sclerostin mRNA level was analyzed by qPCR.
Certain materials and methods were used to generate the results described herein. […] Cells were stained with Hoechst 33342 (ThermoFisher Scientific, catalog number H3570) and Eth-D1 (ThermoFisher Scientific, catalog number E1169) and analyzed to determine the percentage of cell death using ImageJ. […] Co-precipitated irisin was analyzed by immunoblot analysis against flag tag (Sigma Aldrich, catalog number A8592). […] Sclerostin mRNA level was analyzed by qPCR (FIG. 7A). […]
(Real-time PCR tracks product formation cycle by cycle.)

“Also recorded” adds a separate entry of the source.

B1: irisin: secreted cleaved form of FNDC5; recombinant human/mouse irisin with C-terminal his tag produced in HEK293 cells (protein)
chain: DSPSAPVNVTVRHLKANSAVVSWDVLEDEVVIGFAISQQKKDVRMLRFIQEVNTTTRSCALWDLEEDTEYIVHVQAISIQGQSPASEPVLFKTPREAEKMASKNKDEVTMKE
modifications: left off: small tags and cut ends
notes: secreted cleaved form of FNDC5; recombinant human/mouse irisin with C-terminal his tag produced in HEK293 cells
Regarding B1, the “sclerostin mRNA level” value is on record as “increased; also recorded: raised the mRNA level of sclerostin in the osteocyte cultures in a dose-dependent manner”.
